B1: CPEB3 Ribozyme (parent)
chain: GGGGGCCACAGCAGAAGCGUUCACGUCGCGGCCCCUGUCAGAUUCUGGUGAAUCUGCGAAUUCUGCUGU

Variants of: B1
Test: self-cleavage, relative activity (ratio to wild type); higher = more cleavage; co-transcriptional
With C33G C54A the self-cleavage was 0.369. For C33G C63A, the self-cleavage was 0.323. Variant C33G C66G has a self-cleavage of 0.625. With C33G G37C the self-cleavage was 0.16. With C33G G41A the self-cleavage was 0.323. Variant C33G G41C has a self-cleavage of 0.27. Work on C33G G56A yielded a self-cleavage of 0.496. With C33G G56U the self-cleavage was 0.458. For C33G G58A, the self-cleavage was 0.545. For C33G G68C, the self-cleavage was 0.877. Work on C33G G68U yielded a self-cleavage of 0.861. With C33G U36C the self-cleavage was 0.531. In the case of C33G U38C, the self-cleavage is reported as 0.45. With C33G U38G the self-cleavage was 0.324. In the case of C33G U43A, the self-cleavage is reported as 0.299. In the case of C33G U43C, the self-cleavage is reported as 0.391. For C33G U44A, the self-cleavage was 0.29. In the case of C33G U46A, the self-cleavage is reported as 0.438. In the case of C33G U49G, the self-cleavage is reported as 0.692. C33G U53C gave a self-cleavage of 0.407. Variant C33G U55C has a self-cleavage of 0.282. C33G U62C showed a self-cleavage of 0.358. With C33G U67A the self-cleavage was 0.857. With C33G U67G the self-cleavage was 0.93. In the case of C33G U69C, the self-cleavage is reported as 0.972. Variant C33U has a self-cleavage of 0.994. C33U A52G gave a self-cleavage of 0.993. C33U A52U showed a self-cleavage of 0.922. Work on C33U A60C yielded a self-cleavage of 0.319. C33U C34G gave a self-cleavage of 0.258. With C33U C35A the self-cleavage was 0.233. For C33U C39G, the self-cleavage was 0.918. With C33U C39U the self-cleavage was 0.932. In the case of C33U C45U, the self-cleavage is reported as 0.976. Variant C33U C54A has a self-cleavage of 0.868. C33U C54G showed a self-cleavage of 0.828. In the case of C33U C57A, the self-cleavage is reported as 0.323. For C33U C57G, the self-cleavage was 0.247. With C33U C66A the self-cleavage was 0.884. In the case of C33U C66U, the self-cleavage is reported as 0.98. Variant C33U G37U has a self-cleavage of 0.245. Variant C33U G41A has a self-cleavage of 0.827. C33U G50U showed a self-cleavage of 1. In the case of C33U G58A, the self-cleavage is reported as 1. For C33U G58C, the self-cleavage was 1.01. C33U G58U showed a self-cleavage of 0.974. Variant C33U G65A has a self-cleavage of 0.919. In the case of C33U G65C, the self-cleavage is reported as 0.669. In the case of C33U G68A, the self-cleavage is reported as 1.01. In the case of C33U G68U, the self-cleavage is reported as 1.02. Work on C33U U36A yielded a self-cleavage of 0.218. For C33U U38A, the self-cleavage was 0.913. For C33U U43C, the self-cleavage was 0.939. C33U U44A gave a self-cleavage of 1.01. In the case of C33U U44C, the self-cleavage is reported as 0.938. Work on C33U U55C yielded a self-cleavage of 0.685. C33U U55G gave a self-cleavage of 0.8. With C33U U62A the self-cleavage was 0.956. Work on C33U U62C yielded a self-cleavage of 0.847. For C33U U62G, the self-cleavage was 0.845. With C33U U67C the self-cleavage was 0.971. Work on C34A A40C yielded a self-cleavage of 0.291. C34A A42G gave a self-cleavage of 0.765. With C34A A42U the self-cleavage was 0.491. Variant C34A A51C has a self-cleavage of 0.615. With C34A A51U the self-cleavage was 0.521. For C34A A52U, the self-cleavage was 0.664. Variant C34A A59C has a self-cleavage of 0.302. With C34A A60C the self-cleavage was 0.313. C34A A60G gave a self-cleavage of 0.44. Work on C34A A60U yielded a self-cleavage of 0.292. C34A C35A showed a self-cleavage of 0.275. Variant C34A C39A has a self-cleavage of 0.346. Work on C34A C45A yielded a self-cleavage of 0.528. C34A C45G showed a self-cleavage of 0.427. C34A C54A gave a self-cleavage of 0.408. In the case of C34A C54G, the self-cleavage is reported as 0.38. C34A C66A showed a self-cleavage of 0.634. C34A G37C showed a self-cleavage of 0.262. C34A G48A showed a self-cleavage of 0.862. C34A G50A gave a self-cleavage of 0.822. With C34A G50C the self-cleavage was 0.773. C34A G56A showed a self-cleavage of 0.562. Variant C34A G58C has a self-cleavage of 0.556. In the case of C34A G58U, the self-cleavage is reported as 0.881. C34A G65C showed a self-cleavage of 0.485. Work on C34A U36C yielded a self-cleavage of 0.568. With C34A U36G the self-cleavage was 0.316. Work on C34A U38A yielded a self-cleavage of 0.846. With C34A U38C the self-cleavage was 0.492. C34A U38G gave a self-cleavage of 0.232. C34A U43C showed a self-cleavage of 0.496. Variant C34A U44A has a self-cleavage of 0.511. C34A U46A showed a self-cleavage of 0.848. For C34A U46C, the self-cleavage was 0.829. With C34A U49G the self-cleavage was 0.865. With C34A U55A the self-cleavage was 0.529. With C34A U61G the self-cleavage was 0.426. Variant C34A U64G has a self-cleavage of 0.629. Variant C34A U67A has a self-cleavage of 0.883. Work on C34A U67C yielded a self-cleavage of 0.938. Work on C34A U67G yielded a self-cleavage of 0.903. In the case of C34A U69C, the self-cleavage is reported as 0.992. For C34G A42G, the self-cleavage was 0.637. Variant C34G A42U has a self-cleavage of 0.544. C34G A52C gave a self-cleavage of 0.618. Work on C34G A52G yielded a self-cleavage of 0.771. Variant C34G A59C has a self-cleavage of 0.291. Work on C34G A60C yielded a self-cleavage of 0.331. C34G A60G gave a self-cleavage of 0.407. Variant C34G A60U has a self-cleavage of 0.39. C34G C39G showed a self-cleavage of 0.455. C34G C39U gave a self-cleavage of 0.439. Variant C34G C57A has a self-cleavage of 0.311. Work on C34G C57U yielded a self-cleavage of 0.348. C34G C63A showed a self-cleavage of 0.424. In the case of C34G C63U, the self-cleavage is reported as 0.666. Work on C34G C66A yielded a self-cleavage of 0.411. Variant C34G C66U has a self-cleavage of 0.643. In the case of C34G G37C, the self-cleavage is reported as 0.213. In the case of C34G G50A, the self-cleavage is reported as 0.707. For C34G G56C, the self-cleavage was 0.261. With C34G G58A the self-cleavage was 0.463. C34G G58C gave a self-cleavage of 0.654. C34G G58U showed a self-cleavage of 0.772. In the case of C34G G65A, the self-cleavage is reported as 0.58. With C34G G68A the self-cleavage was 0.931. Variant C34G U36A has a self-cleavage of 0.192. Work on C34G U38C yielded a self-cleavage of 0.441. Work on C34G U38G yielded a self-cleavage of 0.202. C34G U43A showed a self-cleavage of 0.551. C34G U44A showed a self-cleavage of 0.579. With C34G U46C the self-cleavage was 0.625. With C34G U53A the self-cleavage was 0.569. In the case of C34G U55A, the self-cleavage is reported as 0.386. C34G U55C showed a self-cleavage of 0.327. With C34G U55G the self-cleavage was 0.475. C34G U61A gave a self-cleavage of 0.458. Variant C34G U61G has a self-cleavage of 0.311. C34G U67A showed a self-cleavage of 0.847. Variant C34G U69G has a self-cleavage of 0.926. C34U A52G gave a self-cleavage of 1.01. C34U A59U gave a self-cleavage of 0.778. Variant C34U C45A has a self-cleavage of 0.946. C34U C57G showed a self-cleavage of 0.261. Work on C34U C63A yielded a self-cleavage of 0.869. C34U C63U showed a self-cleavage of 1. For C34U C66G, the self-cleavage was 0.95. C34U G37A gave a self-cleavage of 0.224. C34U G41C showed a self-cleavage of 0.729. C34U G41U gave a self-cleavage of 0.901. Variant C34U G48A has a self-cleavage of 0.986. Variant C34U G48C has a self-cleavage of 0.974. With C34U G50U the self-cleavage was 0.987. C34U G58A showed a self-cleavage of 0.92. With C34U G58C the self-cleavage was 0.995. For C34U G58U, the self-cleavage was 1. C34U G65U gave a self-cleavage of 0.824. In the case of C34U G68U, the self-cleavage is reported as 1.04. With C34U U36A the self-cleavage was 0.228. Work on C34U U38A yielded a self-cleavage of 0.935. C34U U38C gave a self-cleavage of 0.962. With C34U U38G the self-cleavage was 0.227. In the case of C34U U43A, the self-cleavage is reported as 0.967. Variant C34U U43C has a self-cleavage of 0.892. Variant C34U U53A has a self-cleavage of 0.975. Work on C34U U55C yielded a self-cleavage of 0.823.

Reference: the RNAGym collection of RNA variant scans (doi:10.7554/elife.80360)
